Data published in patent publication EP0959899A1.

Key:
[1] = molecular target: human CD2 (CD2 antigen, entire CD2 molecule) (human) (UniProt P06729); assay: flow cytometry, two colour staining of PBMC with biotinylated LO-CD2a and Leu-5bPE (Figure 1)
[2] = molecular target: human CD2 (CD2 antigen, entire CD2 molecule) (human) (UniProt P06729); assay: flow cytometry, two colour staining of human PBMC (data not shown)
[3] = molecular target: human CD2 (CD2 antigen, entire CD2 molecule) (human) (UniProt P06729); assay: flow cytometry on PBMC cultured with 500 ng/ml LO-CD2a, bound antibody detected with MARK-3-FITC (Figure 5a)

Chain of UniProt P06729 (P06729 25-351): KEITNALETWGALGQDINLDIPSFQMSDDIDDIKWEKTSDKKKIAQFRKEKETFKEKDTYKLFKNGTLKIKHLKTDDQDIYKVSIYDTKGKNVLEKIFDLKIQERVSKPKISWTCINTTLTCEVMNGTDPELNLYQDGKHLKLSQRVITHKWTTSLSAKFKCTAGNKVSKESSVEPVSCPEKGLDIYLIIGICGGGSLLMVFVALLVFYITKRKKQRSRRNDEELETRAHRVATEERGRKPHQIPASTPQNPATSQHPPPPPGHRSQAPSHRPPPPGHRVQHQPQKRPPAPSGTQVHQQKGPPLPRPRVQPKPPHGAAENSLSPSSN

## LO-CD2a rat (IgG2b-Kappa) anti-CD2 monoclonal antibody, produced by the cell line ATCC HB 11423
[1]
  % gated cells in the upper right (double positive) quadrant: 66 % gated
  % total cells in the upper right (double positive) quadrant: 17 % total
[2]
  percent of the population marked by T11 that is recognized: 90%
[3]
  percent of cells labelled by MARK-3 (bound LO-CD2a) at day 6 of culture: 50%

## Leu-5b, mouse anti-human-CD2 monoclonal antibody (Becton Dickinson)
[1]
  % gated cells in the upper right (double positive) quadrant: 66 % gated
  % total cells in the upper right (double positive) quadrant: 17 % total
